Source: US20220249439A1 (FRED HUTCHINSON CANCER RESEARCH CENTER, published 2022)

Target: T1, eIF4E (mouse, endogenous in Pten^L/L prostate tissue) (mouse, UniProt P63073 2-217)
T1 construct: Endogenous protein in mouse prostate tumor tissue, detected with an antibody (SCBT) in a proximity ligation assay; also called eIF4E translation initiation factor; eukaryotic translation initiation factor 4E
Experiment: in situ proximity ligation assay on castrate vs intact Pten^L/L mouse prostate tumors; confirmed by m7GTP cap-binding assay
Protocol: Flash frozen intact and castrate Pten^{L/L} ventral prostates dissected from each animal or from AR+ parental and AR− APIPC tumors were pulverized with mortar and pestle in appropriate volumes of lysis buffer containing 10 mM Tris/HCL pH 7.6, 140 mM KCl, 4 mM MgCl₂, 1 mM DTT, 1 mM EDTA, 1% Nonidet P-40 supplemented with phosphatase and protease inhibitor cocktails (Roche) and lysed for 30 min on ice. Lysates were cleared by centrifugation at 12000 rpm for 25 min at 4° C. Supernatants were collected and assayed for protein concentration using the Protein Assay Dye Reagent (Bio-Rad). 250 μg of protein were incubated rotating with 50 μl of γ-aminophenyl-m7GTP (C10-spacer)-agarose beads (Jena Bioscience) in lysis buffer without Nonidet P-40 at 4° C. overnight. After two washes in lysis buffer containing 0.5% Nonidet P-40 and two washes in PBS, beads were re-suspended in 60 μl of 1×SDS loading buffer and boiled for 5 min. Thirty microliters of boiled lysates were western blotted for eIF4G, eIF4E, and 4EBP1.
To test this hypothesis, proximity ligation assays (PLA) for eIF4E-eIF4G interactions and eIF4E-4EBP1 interactions were optimized (FIG. 2A). […] This was also confirmed by the cap-binding assay (FIG. 11A). […]

T1 sequence (P63073 2-217 limits assumed): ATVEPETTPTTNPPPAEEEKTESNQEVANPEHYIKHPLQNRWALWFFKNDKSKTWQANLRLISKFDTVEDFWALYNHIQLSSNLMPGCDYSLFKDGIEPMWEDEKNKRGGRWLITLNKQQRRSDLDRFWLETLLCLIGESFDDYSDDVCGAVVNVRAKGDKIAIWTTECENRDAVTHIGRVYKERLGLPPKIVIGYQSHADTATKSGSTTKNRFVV

B1: 4EBP1 (mouse, endogenous in Pten^L/L prostate tissue) (other, UniProt Q60876 2-117, looked up)
chain: SAGSSCSQTPSRAIPTRRVALGDGVQLPPGDYSTTPGGTLFSTTPGGTRIIYDRKFLMECRNSPVAKTPPKDLPAIPGVTSPTSDEPPMQASQSQLPSSPEDKRAGGEESQFEMDI
notes: Endogenous protein
  binding result: binds
